# Results reported in patent US20190119403A1 (published 2019).
# Biological target: human cathepsin B (Recombinant Human Procathepsin B, Novoprotein, converted into active form) (human, UniProt P07858 80-333)
# Assay: enzyme inhibition
binder,measurement,value
"Stefin A-derived antibody Fab (Fab, V domains shown) VH: not shown VL: DIQMTQSPSSLSASVGDRVTITCRASQDVNVVAGTTAVAWYQQKPGKAPKLLIYGGSKSLPGQNEDLSGGFLYSGVPSRFSGSRSGTDFTLTISSLQPEDFATYYCQQHLGGPITTPPTFGQGTKLEIKR",Ki,225 nM
